Data on one molecule can be found in patent US20160297863A1 (WAKE FOREST UNIVERSITY HEALTH SCIENCES, published 2016).

This assay deals with EphA2 receptor on GBM cells (human, UniProt P29317 24-976). The experiment in a line: cell-based or functional assay.
Chain of EphA2 receptor on GBM cells (P29317 24-976): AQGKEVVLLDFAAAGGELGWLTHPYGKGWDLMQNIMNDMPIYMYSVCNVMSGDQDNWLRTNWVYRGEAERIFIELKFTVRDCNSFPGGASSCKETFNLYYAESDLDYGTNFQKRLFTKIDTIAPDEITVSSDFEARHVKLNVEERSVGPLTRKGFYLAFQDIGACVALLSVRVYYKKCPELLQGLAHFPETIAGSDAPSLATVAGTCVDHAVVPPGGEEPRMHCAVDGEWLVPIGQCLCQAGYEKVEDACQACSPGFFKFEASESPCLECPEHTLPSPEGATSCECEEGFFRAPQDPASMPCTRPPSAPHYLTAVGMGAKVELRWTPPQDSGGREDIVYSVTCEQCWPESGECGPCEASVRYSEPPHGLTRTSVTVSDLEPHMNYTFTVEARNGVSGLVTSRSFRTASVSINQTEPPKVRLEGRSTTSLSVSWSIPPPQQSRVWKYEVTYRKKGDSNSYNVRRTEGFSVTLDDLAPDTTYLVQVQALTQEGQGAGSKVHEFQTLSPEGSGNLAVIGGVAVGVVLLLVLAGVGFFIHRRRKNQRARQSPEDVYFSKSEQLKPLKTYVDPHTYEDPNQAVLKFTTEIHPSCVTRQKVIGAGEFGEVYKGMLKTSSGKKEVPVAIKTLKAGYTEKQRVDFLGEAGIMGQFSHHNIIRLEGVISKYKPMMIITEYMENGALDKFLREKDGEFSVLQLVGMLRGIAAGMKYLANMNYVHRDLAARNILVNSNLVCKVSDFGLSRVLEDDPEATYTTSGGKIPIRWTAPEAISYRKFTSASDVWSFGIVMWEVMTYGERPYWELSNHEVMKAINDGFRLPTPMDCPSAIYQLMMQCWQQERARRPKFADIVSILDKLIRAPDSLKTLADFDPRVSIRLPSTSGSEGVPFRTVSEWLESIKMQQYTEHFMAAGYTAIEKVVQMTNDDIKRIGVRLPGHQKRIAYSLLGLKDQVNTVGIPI

B1: eA5-PE-C (eA5-Fc chemically conjugated to PE38QQR, glycosylated form) (other)
chain: QDPGSKAVADRYAVYWNSSNPRFQRGDYHIDVCINDYLDVFCPHYEDSVPEDKTERYVLYMVNFDGYSACDHTSKGFKRWECNRPHSPNGPLKFSEKFQLFTPFSLGFEFRPGREYFYISSAIPDNGRRSCLKLKVFVRPTNSCMKTIGVHDRVFDVNDKVENSLEPADDT
On to B1, for which the “IC50, GBM tumor cell killing (cell viability assay)” value was ~10 pM.
